B1: PR003563 (bispecific antibody, human IgG1, kappa, L234A L235A)
light: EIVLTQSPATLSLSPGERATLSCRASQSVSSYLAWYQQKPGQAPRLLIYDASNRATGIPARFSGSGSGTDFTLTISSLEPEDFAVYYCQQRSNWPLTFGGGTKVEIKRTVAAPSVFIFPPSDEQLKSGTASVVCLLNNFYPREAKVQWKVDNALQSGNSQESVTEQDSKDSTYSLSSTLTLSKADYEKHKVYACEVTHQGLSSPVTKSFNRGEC
heavy: EVQLLESGGGLVQPGGSLRLSCAASGFTFSSFVMSWVRQAPGKGLEWVSTISGSGRSTYYADSVKGRFTISRDNSKNTLHLQMNSLRAEDTAVYYCAKDAAAAGTKFDYWGQGTLVTVSSASTKGPSVFPLAPSSKSTSGGTAALGCLVKDYFPEPVTVSWNSGALTSGVHTFPAVLQSSGLYSLSSVVTVPSSSLGTQTYICNVNHKPSNTKVDKKVEPKSCDKTHTCPPCPAPEAAGGPSVFLFPPKPKDTLMISRTPEVTCVVVDVSHEDPEVKFNWYVDGVEVHNAKTKPREEQYNSTYRVVSVLTVLHQDWLNGKEYKCKVSNKALGAPIEKTISKAKGQPREPQVYTLPPSREEMTKNQVSLTCLVKGFYPSDIAVEWESNGQPENNYKTTPPVLDSDGSFFLYSKLTVDKSRWQQGNVFSCSVMHEALHNHYTQKSLSLSPGEPKSSDKTHTPPPPPRTEVQLVESGGGVVQPGGSLRLSCAASGFTFSNYAMTWVRQAPEKGLEWVSSISGSGVSTYYADSVKGRFTISRDNSKNTLYLQMTRLTAEDTAVYFCAKEGSSETDDHYYNVDVWGQGTTVTVSS
notes: Structure 1, IgG-VH; CLDN18.2 Fab from PR002726, 4-1BB VH from PR001760; linker H1_15-RT; human IgG1 (AAG); also called CLDN18.2×4-1BB bispecific antibody molecule
B2: PR003564 (bispecific antibody, human IgG1, kappa, L234A L235A)
light: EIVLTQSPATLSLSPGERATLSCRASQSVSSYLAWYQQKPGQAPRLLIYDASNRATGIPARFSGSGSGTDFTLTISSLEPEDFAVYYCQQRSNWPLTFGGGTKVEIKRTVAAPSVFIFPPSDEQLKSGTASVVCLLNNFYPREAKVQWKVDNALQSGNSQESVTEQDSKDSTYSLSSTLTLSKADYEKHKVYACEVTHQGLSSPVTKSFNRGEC
heavy: EVQLLESGGGLVQPGGSLRLSCAASGFTFSSFVMSWVRQAPGKGLEWVSTISGSGRSTYYADSVKGRFTISRDNSKNTLHLQMNSLRAEDTAVYYCAKDAAAAGTKFDYWGQGTLVTVSSASTKGPSVFPLAPSSKSTSGGTAALGCLVKDYFPEPVTVSWNSGALTSGVHTFPAVLQSSGLYSLSSVVTVPSSSLGTQTYICNVNHKPSNTKVDKKVEPKSCDKTHTCPPCPAPEAAGGPSVFLFPPKPKDTLMISRTPEVTCVVVDVSHEDPEVKFNWYVDGVEVHNAKTKPREEQYNSTYRVVSVLTVLHQDWLNGKEYKCKVSNKALGAPIEKTISKAKGQPREPQVYTLPPSREEMTKNQVSLTCLVKGFYPSDIAVEWESNGQPENNYKTTPPVLDSDGSFFLYSKLTVDKSRWQQGNVFSCSVMHEALHNHYTQKSLSLSPGEPKSSDKTHTPPPPPRTEVQLLESGGGLVQPGGSLRLSCAASGFIFSNFAMTWVRQPPEKGLKWVSSINGSGFNTYYTDSVKGRFTISRDNSRNTLYLQMNRLTAEDTAVYFCAKEGSSETDDHYYNVDVWGQGTTVTVSS
notes: Structure 1, IgG-VH; CLDN18.2 Fab from PR002726, 4-1BB VH from PR001836; linker H1_15-RT; human IgG1 (AAG); also called CLDN18.2×4-1BB bispecific antibody molecule
B3: PR001760, anti-4-1BB heavy-chain antibody 1016P0011G10 (antibody, human IgG1, V domains shown)
VH: EVQLVESGGGVVQPGGSLRLSCAASGFTFSNYAMTWVRQAPEKGLEWVSSISGSGVSTYYADSVKGRFTISRDNSKNTLYLQMTRLTAEDTAVYFCAKEGSSETDDHYYNVDVWGQGTTVTVSS
notes: Fully human heavy-chain antibody (HCAb), heavy chain dimer without light chains; also called anti-4-1BB HCAb antibody
B4: PR003562 (bispecific antibody, human IgG1, kappa, L234A L235A)
light: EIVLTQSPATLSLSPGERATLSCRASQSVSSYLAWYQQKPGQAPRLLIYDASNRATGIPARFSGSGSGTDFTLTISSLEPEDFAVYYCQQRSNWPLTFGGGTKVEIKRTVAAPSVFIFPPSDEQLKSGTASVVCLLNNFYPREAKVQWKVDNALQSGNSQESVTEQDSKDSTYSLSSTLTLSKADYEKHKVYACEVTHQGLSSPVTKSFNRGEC
heavy: EVQLLESGGGLVQPGGSLRLSCAASGFTFSSFVMSWVRQAPGKGLEWVSTISGSGRSTYYADSVKGRFTISRDNSKNTLHLQMNSLRAEDTAVYYCAKDAAAAGTKFDYWGQGTLVTVSSASTKGPSVFPLAPSSKSTSGGTAALGCLVKDYFPEPVTVSWNSGALTSGVHTFPAVLQSSGLYSLSSVVTVPSSSLGTQTYICNVNHKPSNTKVDKKVEPKSCDKTHTCPPCPAPEAAGGPSVFLFPPKPKDTLMISRTPEVTCVVVDVSHEDPEVKFNWYVDGVEVHNAKTKPREEQYNSTYRVVSVLTVLHQDWLNGKEYKCKVSNKALGAPIEKTISKAKGQPREPQVYTLPPSREEMTKNQVSLTCLVKGFYPSDIAVEWESNGQPENNYKTTPPVLDSDGSFFLYSKLTVDKSRWQQGNVFSCSVMHEALHNHYTQKSLSLSPGEPKSSDKTHTPPPPPRTEVQLLESGGGLVQLGGSLRLSCAASGFTFSRYAMTWVRQAPEKGLEWVSSISGSGDDTYYGDSVKGRFTISRDNSQNTVYLQMNSLRAEDTAVYFCAKEKAGTTGDYYYNVDVWGQGTTVTVSS
notes: Structure 1, IgG-VH; CLDN18.2 Fab from PR002726, 4-1BB VH from PR001758; linker H1_15-RT; human IgG1 (AAG); also called CLDN18.2×4-1BB bispecific antibody molecule
B5: PR003550 (bispecific antibody, human IgG1, kappa, L234A L235A)
light: DIQMTQSPSTLSASVGDRVTVTCRASQSIYIWLAWYQQKPGKAPNLLIYKASSLETGVPSRFSGSGSGTEFTLTISSLQPDDFATYYCQQYYGSSRTFGQGTKVEIKRTVAAPSVFIFPPSDEQLKSGTASVVCLLNNFYPREAKVQWKVDNALQSGNSQESVTEQDSKDSTYSLSSTLTLSKADYEKHKVYACEVTHQGLSSPVTKSFNRGEC
heavy: EVQLVESGGGLVQPGGSLRLSCAASGFTFSSYWMSWVRQAPGKGLEWVANIKQEGSEKYYVDSVKGRFTISRDNAKNSLYLQMNSLRAEDTAVYYCARDRAVAGAFDIWGQGTMVTVSSASTKGPSVFPLAPSSKSTSGGTAALGCLVKDYFPEPVTVSWNSGALTSGVHTFPAVLQSSGLYSLSSVVTVPSSSLGTQTYICNVNHKPSNTKVDKKVEPKSCDKTHTCPPCPAPEAAGGPSVFLFPPKPKDTLMISRTPEVTCVVVDVSHEDPEVKFNWYVDGVEVHNAKTKPREEQYNSTYRVVSVLTVLHQDWLNGKEYKCKVSNKALGAPIEKTISKAKGQPREPQVYTLPPSREEMTKNQVSLTCLVKGFYPSDIAVEWESNGQPENNYKTTPPVLDSDGSFFLYSKLTVDKSRWQQGNVFSCSVMHEALHNHYTQKSLSLSPGEPKSSDKTHTPPPPPRTEVQLVESGGGVVQPGGSLRLSCAASGFTFSNYAMTWVRQAPEKGLEWVSSISGSGVSTYYADSVKGRFTISRDNSKNTLYLQMTRLTAEDTAVYFCAKEGSSETDDHYYNVDVWGQGTTVTVSS
notes: Structure 1, IgG-VH tetravalent symmetric; PD-L1 Fab from PR000265, 4-1BB VH from PR001760; linker H1_15-RT; human IgG1 (AAG); also called PD-L1×4-1BB bispecific antibody molecule
B6: PR007163 (bispecific antibody, human IgG1)
light: B5 light
heavy: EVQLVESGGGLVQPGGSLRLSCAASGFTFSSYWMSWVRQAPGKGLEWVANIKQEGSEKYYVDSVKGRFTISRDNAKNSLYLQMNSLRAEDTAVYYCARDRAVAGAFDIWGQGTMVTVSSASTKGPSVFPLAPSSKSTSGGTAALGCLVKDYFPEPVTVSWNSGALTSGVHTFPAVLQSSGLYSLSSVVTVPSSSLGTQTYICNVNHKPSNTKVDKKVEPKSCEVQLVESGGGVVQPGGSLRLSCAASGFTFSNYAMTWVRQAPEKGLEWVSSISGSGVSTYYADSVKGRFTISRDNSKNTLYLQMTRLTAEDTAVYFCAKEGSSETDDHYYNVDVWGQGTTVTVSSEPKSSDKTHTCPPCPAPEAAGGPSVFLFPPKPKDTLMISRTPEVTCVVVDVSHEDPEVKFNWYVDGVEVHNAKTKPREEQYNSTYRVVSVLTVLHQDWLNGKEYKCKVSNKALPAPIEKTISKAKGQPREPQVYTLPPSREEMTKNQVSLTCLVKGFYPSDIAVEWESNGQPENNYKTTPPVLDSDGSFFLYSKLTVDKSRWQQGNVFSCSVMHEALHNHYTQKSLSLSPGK
notes: Structure 4, Fab(CH1)-VH-Fc (Fab-HCAb); PD-L1 Fab from PR000265, 4-1BB VH from PR001760; no first linker, second linker human IgG1 hinge (C220S); human IgG1 (LALA); also called PD-L1×4-1BB bispecific antibody molecule, structure (4)
B7: PR004270 (bispecific antibody, human IgG1)
chain 1: EVQLVESGGGLVQPGGSLRLSCAASGFTFSSYWMSWVRQAPGKGLEWVANIKQEGSEKYYVDSVKGRFTISRDNAKNSLYLQMNSLRAEDTAVYYCARDRAVAGAFDIWGQGTMVTVSSASTKGPSVFPLAPSSKSTSGGTAALGCLVKDYFPEPVTVSWNSGALTSGVHTFPAVLQSSGLYSLSSVVTVPSSSLGTQTYICNVNHKPSNTKVDKKVEPKSC
chain 2: not shown
notes: Structure 3, Fab(CL)-VH-Fc (Fab-HCAb) tetravalent symmetric; PD-L1 Fab from PR000265, 4-1BB VH from PR001760; L1 H1_15, L2 human IgG1 hinge (C220S); human IgG1 (LALA); also called PD-L1×4-1BB bispecific antibody molecule with the Fab-HCAb symmetric structure
B8: PR007164 (bispecific antibody, human IgG1)
chain 1: B7 chain 1
chain 2: not shown
notes: Structure 3, Fab(CL)-VH-Fc (Fab-HCAb); PD-L1 Fab from PR000265, 4-1BB VH from PR001760; no first linker, second linker human IgG1 hinge (C220S); human IgG1 (LALA); also called PD-L1×4-1BB bispecific antibody molecule, structure (3)
B9: PR000265, anti-PD-L1 91G3H5H3(D54E), hIgG1(N297A) (antibody, V domains shown)
VH: EVQLVESGGGLVQPGGSLRLSCAASGFTFSSYWMSWVRQAPGKGLEWVANIKQEGSEKYYVDSVKGRFTISRDNAKNSLYLQMNSLRAEDTAVYYCARDRAVAGAFDIWGQGTMVTVSS
VL: DIQMTQSPSTLSASVGDRVTVTCRASQSIYIWLAWYQQKPGKAPNLLIYKASSLETGVPSRFSGSGSGTEFTLTISSLQPDDFATYYCQQYYGSSRTFGQGTKVEIKR
notes: Parent monoclonal antibody of the PD-L1 end

biological target: T1, human 4-1BB (human, UniProt Q07011 24-255); assay: flow cytometry, CHO-K1/hu 4-1BB cells
T1 construct: whole, on cells; Expressed on CHO-K1/hu 4-1BB cells (GenScript, M00538); also called CD137; TNFRSF9
T1 sequence (Q07011 24-255): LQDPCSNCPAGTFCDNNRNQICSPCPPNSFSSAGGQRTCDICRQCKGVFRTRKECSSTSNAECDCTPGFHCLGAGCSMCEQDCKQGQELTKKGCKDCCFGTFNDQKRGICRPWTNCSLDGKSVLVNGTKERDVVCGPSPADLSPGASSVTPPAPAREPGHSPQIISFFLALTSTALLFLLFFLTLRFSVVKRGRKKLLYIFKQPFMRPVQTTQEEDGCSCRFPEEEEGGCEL
Method: The binding ability of the binding protein to a CHO-K1 cell line CHO-K1/hu 4-1BB (GenScript, M00538) highly expressing human 4-1BB and a CHO-K1 cell line CHO-K1/cyno 4-1BB (GenScript, M00569) highly expressing cynomolgus monkey 4-1BB were determined by flow cytometry FACS. Specifically, the cells were digested and resuspended in a complete medium, and the cell density was adjusted to 2×10⁶ cells/mL. […] The cells were incubated at 4° C. for 1 h away from light. Then, the cells in each well were rinsed twice with 100 μL of pre-cooled FACS buffer (PBS buffer containing 0.5% BSA) and centrifuged at 500 g at 4° C. for 5 min, and then the supernatant was discarded. […] Then, the cells in each well were then rinsed twice with 200 μL of pre-cooled FACS buffer and centrifuged at 500 g at 4° C. for 5 min, and then the supernatant was discarded. Finally, a pre-cooled FACS buffer was added at 200 μL/well to resuspend the cells. Fluorescence signal values were read using a BD FACS CANTOII flow cytometer or an ACEA NovoCyte flow cytometer, and the data were processed and analyzed using FlowJo v10 (FlowJo, LLC) software.

Binding result, binds:
B1
B2
B3
B4

biological target: T2, human PD-L1 (human, UniProt Q9NZQ7 19-290); assay: flow cytometry, CHO-K1/hPD-L1 cells
T2 construct: whole, on cells; Expressed on CHO-K1/hPD-L1 cells (GenScript, M00543); also called CD274; B7-H1
T2 sequence (Q9NZQ7 19-290): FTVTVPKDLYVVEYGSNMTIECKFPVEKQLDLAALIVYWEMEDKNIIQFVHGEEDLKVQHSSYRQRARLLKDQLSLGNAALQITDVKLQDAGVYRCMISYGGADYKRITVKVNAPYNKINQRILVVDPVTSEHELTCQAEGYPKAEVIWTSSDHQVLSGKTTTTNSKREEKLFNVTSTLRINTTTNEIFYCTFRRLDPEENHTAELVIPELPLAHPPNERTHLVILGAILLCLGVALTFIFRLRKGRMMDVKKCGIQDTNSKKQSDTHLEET

Binding result, binds:
B5
B6
B7
B8
B9
